# Measured values from publication PMC10667928.
# Assays:
# [1] = target: Xiphophorus multilineatus melanocortin 4 receptor, mutant B2 allele (Mc4r B2) (X. multilineatus); assay: FRET or BRET; FRET-FLIM (pulsed interleaved excitation) on fixed HEK293T cells, basal or apical membrane; first-named protomer with C-terminal eGFP (donor, written as binder), second with C-terminal mCherry (acceptor, written as target); donor/acceptor ratio 1:5 at transfection; lifetime-based FRET efficiency Eτ against donor-only samples
# [2] = target: Xiphophorus multilineatus melanocortin 4 receptor, wild-type A allele (Mc4r A) (X. multilineatus); assay: as above
# [3] = target: Xiphophorus multilineatus melanocortin 4 receptor, mutant B1 allele (Mc4r B1) (X. multilineatus); assay: as above
# [4] = target: Xiphophorus multilineatus melanocortin 4 receptor, mutant B2 allele (Mc4r B2) (X. multilineatus); assay: FRET or BRET; FRET-FLIM data of the fixed cells sorted by stoichiometry (<0.3, 0.3-0.5, 0.5-0.7, >0.7); dimerization grade by equation (8): β1AR as monomer baseline, CD28 at stoichiometry <0.3 as 100%
# [5] = target: Xiphophorus multilineatus melanocortin 4 receptor, wild-type A allele (Mc4r A) (X. multilineatus); assay: as above
# [6] = target: Xiphophorus multilineatus melanocortin 4 receptor, mutant B1 allele (Mc4r B1) (X. multilineatus); assay: as above
# [7] = target: Xiphophorus multilineatus melanocortin 4 receptor, wild-type A allele (Mc4r A) (X. multilineatus); assay: FRET or BRET; FRET-FLIM (pulsed interleaved excitation) on fixed HEK293T cells, basal or apical membrane; first-named protomer with C-terminal eGFP (donor, written as binder), second with C-terminal mCherry (acceptor, written as target); donor/acceptor ratio 1:1 at transfection; lifetime-based FRET efficiency Eτ against donor-only samples
# [8] = target: Xiphophorus multilineatus melanocortin 4 receptor, mutant B1 allele (Mc4r B1) (X. multilineatus); assay: as above
# [9] = target: human chimeric MC4R chim7 (named Mut in this study) (human) (UniProt P32245); assay: FRET or BRET; FRET-FLIM (pulsed interleaved excitation) on fixed HEK293T cells, basal or apical membrane; first-named protomer with C-terminal eGFP (donor, written as binder), second with C-terminal mCherry (acceptor, written as target); donor/acceptor ratio 1:5 at transfection; lifetime-based FRET efficiency Eτ against donor-only samples
Substance,FRET efficiency Eτ [1],FRET efficiency Eτ [2],donor (eGFP) lifetime; donor-only 2.13 ns [2],FRET efficiency Eτ [3],dimerization grade at stoichiometry 0.3-0.5 [4],dimerization grade at stoichiometry <0.3 [4],dimerization grade at stoichiometry 0.3-0.5 [5],dimerization grade at stoichiometry <0.3 [5],dimerization grade at stoichiometry 0.3-0.5 [6],dimerization grade at stoichiometry <0.3 [6],FRET efficiency Eτ [7],donor (eGFP) lifetime; donor-only 2.13 ns [7],FRET efficiency Eτ [8],FRET efficiency Eτ [9]
"Xiphophorus multilineatus melanocortin 4 receptor, wild-type A allele (Mc4r A)",23.8%,26.1%,1.57 ns,21.6%,28%,52%,26%,76%,28%,52%,12.7%,1.85 ns,15.4%,–
human MC4R wild-type (from UniProt P32245 1-332) (receptor),–,–,–,–,–,–,–,–,–,–,–,–,–,19.6%
